This is an account of results in patent publication US20240383994A1 (CHIA TAI TIANQING PHARMACEUTICAL GROUP, published 2024).

Where a chain is given by its changes, count along the chain named. Read-outs that look alike come from different tables or passages of the source.

In assay [1] the target is T1, human CD40 (hCD40), full length, on cells (human, UniProt P25942 21-277). Briefly: cell-based or functional assay.
The target in assay [2] is T2, hCD40-His protein (Acro, Cat. No.: CD0-H5228) (human, UniProt P25942 21-193).
T2 construct: Bought protein; also called human CD40 antigen; not shown: His tag
Description: BLI (Fortebio Octet RED96e), antibody captured on AHC sensor, antigen 1.56-100 nM, 1:1 model. On the procedure:
(§1) The affinity of humanized anti-CD40 antibodies to an hCD40-His protein (Acro, Cat. No.: CD0-H5228) and a CynoCD40-His protein (Acro, Cat. No.: CD0-C52H6) was detected by a ForteBio molecular interaction system. Firstly, an AHC biosensor (Fortebio, Cat. No.: 18-5060) was activated, and then immersed in an anti-CD40 antibody solution at a final concentration of 5 μg/mL to capture the antibodies. Serially 2-fold diluted hCD40-His protein and CynoCD40-His protein in a final concentration range of 1.56 nM-100 nM were then […] the AHC biosensor. The response signals were detected in real time on a Fortebio molecular interaction system (Fortebio Octet RED96e) to give association and dissociation curves. After the completion of dissociation in each cycle, the AHC biosensor was regenerated for the next capture; the procedure was repeated until the affinity of the different antibodies for CD40 was determined. The resulting data were analyzed by Fortebio Data Analysis 11.0 software using a 1:1 (Langmuir) binding model to determine the Kₐ (Kₒₙ) and Kd (Kdis) values, and the dissociation constant KD was calculated by KD=Kd/Kₐ. See www.fortebio.com for more detailed detection procedures and related information.
In general terms: Biolayer interferometry detects binding as a change in optical thickness at a sensor tip.

The target in assay [3] is T1, human CD40 (hCD40), full length, on …. Briefly: flow cytometry (MFI) on CHO-K1-hCD40 cells, PE anti-human IgG detection. On the technique in general: A flow cytometer gives signals particle by particle.
Another assay concerns the target T3, hCD40-mFc (human).
T3 construct: Prepared in-house in CHO cells; also called human CD40 recombinant protein containing a mouse antibody heavy chain Fc; Human CD40-mFc
Briefly: flow cytometry, blocking of hCD40-mFc (2 µg/mL) binding to CHO-K1-hCD40L cells. On the procedure:
A CHO-K1-hCD40L cell suspension and a CHO-K1-CynoCD40L cell suspension at a cell concentration of 3×10⁵ cells/mL were separately added into a 96-well U-bottom plate at 100 μL/well. An hCD40-mFc protein at a final concentration of 2 μg/mL (prepared in-house, SEQ ID NO: 64) or a cynoCD40-mFc protein at a final concentration of 2 μg/mL (prepared in-house, SEQ ID NO: 65) was added correspondingly, before serially 2-fold diluted anti-CD40 antibodies in a final concentration range of 312.5 ng/ml-40000 ng/ml were added. The mixture was mixed well, and then incubated at 4° C. for 1 h. The cells were washed with PBS containing 2% of FBS, and then a PE-conjugated goat anti-mouse IgG (H+L) antibody (Abcam, Cat. No.: ab97041) diluted at a volume ratio of 1:500 was added, and the mixture was incubated at 4° C. for 0.5 h. The cells were washed with PBS containing 2% of […], and then resuspended in PBS containing 2% of FBS. The fluorescence signals were detected on a flow cytometer (Sartorius IQue3). The activity of anti-CD40 antibodies to block the binding of CHO-K1-hCD40L cells to an hCD40-mFc protein and CHO-K1-cynoCD40L cells to a cynoCD40-mFc protein was analyzed by the mean fluorescence intensity (MFI) of staining, and the IC₅₀ value was calculated by GraphPad Prism software.

In assay [4] the target is T1, human CD40 (hCD40), full length, on …. Description: cell-based or functional assay. The source holds these as a separate data set.
Assay [5] shares this target. Description: cell-based or functional assay. This is another data set of the same source.
In assay [6] the target is T4, CynoCD40-His protein (Acro, Cat. No.: CD0-C52H6) (cynomolgus monkey, UniProt P25942 21-193 (human entry)).
T4 construct: Bought protein; also called cynomolgus monkey CD40 antigen; not shown: His tag
T4 chain: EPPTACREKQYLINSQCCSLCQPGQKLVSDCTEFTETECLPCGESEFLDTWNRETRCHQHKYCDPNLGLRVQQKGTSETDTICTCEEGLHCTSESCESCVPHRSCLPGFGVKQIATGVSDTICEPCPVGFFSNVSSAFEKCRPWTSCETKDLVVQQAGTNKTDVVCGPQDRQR
Description: BLI (Fortebio Octet RED96e), antibody captured on AHC sensor, antigen 1.56-100 nM, 1:1 model. On the procedure: as §1

Assay [7] concerns the target T1, human CD40 (hCD40), full length, on …. Briefly: flow cytometry (MFI) on 293T-hCD40-NFκB cells, PE anti-human IgG detection.
Assay [8] has the same target. Briefly: cell-based or functional assay. This is another data set of the same source.

B1: Chi-A03 (antibody, human IgG4 S228P, kappa, V domains shown)
VH: DVQLQESGPDRVKPSQSLSLTCTVTGYSITSDYSWHWIRQFPGNKLEWMGYIYSSGHTYYNPSLKSRISFTRDTSKNQFFLQLNSVTTEDTATYYCAIYYYGRSYFDNWGRGTTLTVSS
VL: QIVLTQSPAIMSASPGEKVTLTCSASSSVNYMHWYQQKSGTSPKRWIYDTSKLASGVPARFSGSGSGTSYSLTISSMEAEDAATYYCQQWSSNPLTFGAGTKLELKR
notes: also called chimeric A03
One may read the Kd as the concentration at which binding is half-saturated. For orientation: koff means a measure of how fast the partners let go of each other. Lower therefore signals a long-lived complex. The term kon denotes the second-order rate constant of association. Read a high kon as faster complex formation. By EC50 is commonly meant the concentration needed to bring the measured effect to its halfway point. Read a low EC50 as a more potent agent. B1: in assay [1], the “IC50, inhibition of Ramos cell apoptosis induced by CD40L and IL-4” value (shortened to “IC50, inhibition”) was 0.134 nM; the “Inhibition, % of Ramos cell apoptosis at 0.064 ng/L (so in the source)” value (shortened to “Inhibition, % … at 0.064 ng/L (so in the source)”) was -8%; the “Inhibition, % of Ramos cell apoptosis at 0.32 ng/L (so in the source)” value (from here on “Inhibition, % … at 0.32 ng/L (so in the source)”) was -9%; the “Inhibition, % of Ramos cell apoptosis at 1.6 ng/L (so in the source)” value (“Inhibition, % … at 1.6 ng/L (so in the source)” below) was -10%. For the same molecule, in [1], the “Inhibition, % of Ramos cell apoptosis at 8 ng/L (so in the source)” value (from here on “Inhibition, % … at 8 ng/L (so in the source)”) worked out at 18%; the “Inhibition, % of Ramos cell apoptosis at 40 ng/L (so in the source)” value (“Inhibition, % … at 40 ng/L (so in the source)” for short) is 66%; the “Inhibition, % of Ramos cell apoptosis at 200 ng/L (so in the source)” value (from here on “Inhibition, % … at 200 ng/L (so in the source)”) is 90%; the “Inhibition, % of Ramos cell apoptosis at 1000 ng/L (so in the source)” value (shortened to “Inhibition, % … at 1000 ng/L (so in the source)”) turned out to be 98%. In [2], this molecule registered a dissociation constant Kd of 2.51 nM, a koff of 0.00147 s⁻¹ and a kon of 586000 M⁻¹ s⁻¹. This molecule also returned an EC50 in assay [3] of 1.36 nM.

B2: hzA01-3.3 (antibody, human IgG4 S228P, kappa, V domains shown)
VH: QVQLKESGPGLVKPSETLSLTCTVSGFSLPTSGVHWIRQPPGKGLEWIGVIWAGGDTNYNSALKSRVTISKDNSKSQVFLKLSSVTAADTAVYYCLGHGHFDVWGQGTLVTVSS
VL: DVVMTQSPLSLPVTLGQPASISCRSSQSLVHSSGNTYLQWYLQRPGQSPGLLIYKVSNRFSGVPDRFSGSGSGTDFTLKISRVEAEDVGVYYCSQTTHVPWTFGQGTKLEIKR
notes: Humanized A01; also called hzA01L3 + hzA01H3
A word on the IC50: it is the concentration that gives 50% inhibition. What is called EC50 (read off the curve) is the concentration that produces a half-maximal response. In the assay with hCD40-mFc, B2 returned an IC50 of 38.4 nM. Moreover, in [4], the “IC50 (read off the curve); NF-κB luciferase reporter (RLU), 293T-hCD40-NFκB cells co-cultured 1:1 with CHO-K1-hCD40L cells” value (“IC50 (read off the curve)” for short) is roughly 2 ng/mL. In assay [5], the “MFI value (CD95 on Ramos cells), Fc crosslinking with anti-human IgG Fcγ antibody, 1 µg/mL antibody” value is 14100 MFI and the “MFI value (CD95 on Ramos cells), Fc crosslinking with anti-human IgG Fcγ antibody, 10 µg/mL antibody” value stood at 12300 MFI. Also, in [6], the Kd is 0.243 nM, the off-rate (koff) turned out to be 0.000484 s⁻¹ and the kon amounted to 1.99e+06 M⁻¹ s⁻¹. In [2], this molecule returned a Kd of 0.255 nM, a dissociation rate constant (koff) of 0.000414 s⁻¹ and an association rate constant (kon) of 1.63e+06 M⁻¹ s⁻¹. The “EC50 (read off the curve)” value in assay [7] is roughly 3 ng/mL.

B3: Chi-A01 (antibody, human IgG4 S228P, kappa, V domains shown)
VH: QVQLKESGPGLVAPSQSLSITCTVSGFSLPTSGVHWVRQPPGKGLEWLGVIWAGGDTNYNSALMSRLSISKDNSKSQVFLKMNSLQKDDTAIYYCLGHGHFDVWGAGTTVTVSS
VL: B2 VL with S7T, T14S, Q17D, P18Q, R44K, V88L, Y92F, Q105G
notes: also called chimeric A01
As for B3, the IC50 in the assay with hCD40-mFc stood at 21.3 nM. Moreover, in assay [8], the “IC50, inhibition” value worked out at 0.00413 nM; the “Inhibition, % of Ramos cell apoptosis at 0.0128 ng/mL” value is 11%; the “Inhibition, % of Ramos cell apoptosis at 0.064 ng/mL” value came to 10%; the “Inhibition, % of Ramos cell apoptosis at 0.32 ng/mL” value was determined as 39%. Moreover, in assay [8], the “Inhibition, % of Ramos cell apoptosis at 1.6 ng/mL” value was 79%; the “Inhibition, % of Ramos cell apoptosis at 8 ng/mL” value is 101%; the “Inhibition, % of Ramos cell apoptosis at 40 ng/mL” value came to 99%; the “Inhibition, % of Ramos cell apoptosis at 200 ng/mL” value amounted to 101%. Also, in assay [8], the “Inhibition, % of Ramos cell apoptosis at 1000 ng/mL” value came to 100%. Further, the “IC50 (read off the curve)” value in assay [4] was roughly 0.6 ng/mL. In [1], the “IC50, inhibition” value came out at 0.00508 nM; the “Inhibition, % … at 0.064 ng/L (so in the source)” value came to 0%; the “Inhibition, % … at 0.32 ng/L (so in the source)” value came to 17%; the “Inhibition, % … at 1.6 ng/L (so in the source)” value is 82%. Further, in assay [1], the “Inhibition, % … at 8 ng/L (so in the source)” value was found to be 96%; the “Inhibition, % … at 40 ng/L (so in the source)” value stood at 95%; the “Inhibition, % … at 200 ng/L (so in the source)” value was 96%; the “Inhibition, % … at 1000 ng/L (so in the source)” value worked out at 95%. In assay [6], this molecule had a Kd of 0.162 nM, an off-rate constant (koff) of 0.000276 s⁻¹ and a kon of 1.7e+06 M⁻¹ s⁻¹. Besides, in [2], binding was characterised by a dissociation constant (Kd) of 0.153 nM, the koff is 0.000283 s⁻¹ and the on-rate constant (kon) is 1.85e+06 M⁻¹ s⁻¹. Also, the “EC50 (read off the curve)” value in [7] is roughly 2 ng/mL. This molecule registered an EC50 in assay [3] of 0.43 nM.

B4: hzA01-3.4 (antibody, human IgG4 S228P, kappa, V domains shown)
VH: B2 VH with K64M, L82M
VL: B2 VL
notes: Humanized A01; also called hzA01L3 + hzA01H4
In the assay with hCD40-mFc, B4 registered an IC50 of 19.8 nM. Further, the “IC50 (read off the curve)” value in assay [4] was roughly 0.6 ng/mL. For the same molecule, in assay [6], the affinity, expressed as Kd, was 0.262 nM; the koff is 0.000532 s⁻¹; the kon was 2.03e+06 M⁻¹ s⁻¹. In assay [2], this molecule showed a Kd of 0.264 nM, a koff of 0.000454 s⁻¹ and a kon of 1.72e+06 M⁻¹ s⁻¹. Moreover, in assay [7], the “EC50 (read off the curve)” value was roughly 2 ng/mL.

B5: Chi-A02 (antibody, human IgG4 S228P, kappa, V domains shown)
VH: B3 VH with P30T, T31S, N58S, K87T, I92M, F101L
VL: B2 VL with S7T, T14S, Q17D, P18Q, Q39H, R44K, V88L, Y92F, Q105G
notes: also called chimeric A02
For the molecule B5, in [1], the “IC50, inhibition” value worked out at 0.00499 nM; the “Inhibition, % … at 0.064 ng/L (so in the source)” value was found to be 5%; the “Inhibition, % … at 0.32 ng/L (so in the source)” value is 20%; the “Inhibition, % … at 1.6 ng/L (so in the source)” value turned out to be 85%. Also, in assay [1], the “Inhibition, % … at 8 ng/L (so in the source)” value turned out to be 98%; the “Inhibition, % … at 40 ng/L (so in the source)” value stood at 97%; the “Inhibition, % … at 200 ng/L (so in the source)” value is 97%; the “Inhibition, % … at 1000 ng/L (so in the source)” value was determined as 94%. In assay [3], this molecule displayed an EC50 of 0.39 nM.
